Laboratory results taken from a protein production outcome set (Wang et al. 2014).

Experiment: label from the status in PepcDB records

| Sequence | protein production |
| --- | --- |
| MKLYIYDHCPFCVKARMIFGLKNIPVELNVLQNDDEATPTRMIGQKMVPILQKDDSRYLPESMDIVHYVDNLDGKPLLTGKRNPAIEEWLRKVNGYVNQLLLPRFAKSAFDEFSTPAARQYFIRKKEASSGSFDNHLAHSAGLIKKIGDDLRLLDKLIVQPNAVNGELSEDDIHLFPLLRNLTLVAGIHWPTKVADYRDNMAKQTQINLLSSMAI | not failed |
| MKMLNRLDLGVPCLRAGFAGEQAFFLAMDGRLHVQQGDQRRVVALHDGDVLSACAAPGQADAAAWLLSAGEDGRVMRAGAGEPDCVASVPNKWVTALAVAADGALAYASGRTVWLAGGGGEAAALPQERPVQALRFSHGGRWLAVAGYDGLALYDRQAGGEPQRLDWKGMPTRVAFSPDDRFVLVATRDAVLHGWRLDTLRHFRMVGYPRAVGSWSWLAGGQWLATDGSAGAVLWPFEGEEGPIGSTPLALGERPDGEVSAVACHPARPWVAVGYADGLMVLESTDGALRRILGQAGRDRVACLAWDRAGARLAYGTPSGACGVIQADTGEEGLEHHHHHH | failed |
| MKMNNTKEYSIRTPSLGNLPPGTTGTCCPPPLVFPLLPLSPPPSPPPSPSSPPRLPPPFPALFPPEPPLPPRFELPPPLFPPPPLPRLPPPLLPPPEEPPREPPPPPPPPEEPPPPASCLRTKSPENGIVSTVK | failed |
| MKMYEVKEFSSGKRKLEDYKSIIGEEEVSKIQEKAEKLKGRSFVHVNSTSFGGGVAEILHSLVPLLRSIGIEARWFVIEGPTEFFNVTKTFHNALQGNESLKLTEEMKELYLNVNRENSKFIDLSSFDYVLVHDPQPAALIEFYEKKSPWLWRCHIDLSSPNREFWEFLRRFVEKYDRYIFHLPEYVQPELDRNKAVIMPPSIDPLSEKNVELKQTEILRILERFDVDPEKPIITQVSRFDPWKGIFDVIEIYRKVKEKIPGVQLLLVGVMAHDDPEGWIYFEKTLRKIGEDYDVKVLTNLIGVHAREVNAFQRASDVILQMSIREGFGLTVTEAMWKGKPVIGRAVGGIKFQIVDGETGFLVRDANEAVEKVLYLLKHPEVSKEMGAKAKERVRKNFIITKHMERYLDILNSLGGLEHHHHHH | not failed |
| MKNELICYKQMPVWTKDNLPQMFQEKHNTKVGTWGKLTVLKGKLKFYELTENGDVIAEHIFTPESHIPFVEPQAWHRVEALSDDLECTLGFYCKKEDYFSKKYNTTAIHGDVVDAAKIISPCKVLDLGCGQGRNSLYLSLLGYDVTSWDHNENSIAFLNETKEKENLNISTALYDINAANIQENYDFIVSTVVFMFLNRERVPSIIKNMKEHTNVGGYNLIVAAMSTDDVPCPLPFSFTFAENELKEYYKDWEFLEYNENMGELHKTDENGNRIKMKFATMLARKK | not failed |
| MKNIFLTMSLGIGLLFPCKLHAQSQYPFQNTTLSTEERVDDLIKRMTLEEKIDLLSGYNDFYLHPCERLGIPAFKLADGPLGVASWGLFGRATAFPSALSLAASWNKNLAEKTGAMYAQEWRARGIHFLLAPGVNNYRASKGARNFEYFGEDPYLASEMVVPFIKAVQDGGVIATIKHFAANDQEFDRYTVSTEVSERALQEIYLPPFKAAVQKAGVKAVMTGYNLVNGVYCTENKHLIDILKKDWGFKGMLMSDWACTYSAENAANYGLDLEMGSNDWFTRKELLPLVKEGKVTEEVINDKVRRIYGACISMGFFDRPQQDTDIPTFNPQANQMALNTACEGIILLKNEQNTLPIHRPKVIAVIGPTANPAIVSDRIYNVNSIVYGGGGSSKVHPWYVVSALEGIRQEFPEATVLYTEGISNQFKPRLFRNSKFRTKEGKPGLEANYYALSSDTSATLSDKMIQQQAVAAGRTVSVNQSADRTIETDKEESGLILRRTDRTVNYEWWGYPFNESKLGNDYRVCWEGYVDVEKTDSIRFFVDAQGAYRLWIDGTLALDASQSQSFDVRNTAISAKKGDAKHIRLEFCNQRSTPAEIRMGYAYQSDIDFSEAKRLAAKADLVVFCAGLDGSIELEGRDRPFDLPYGQDMLIQELVKVNPKLIVAIHAGGGINMTRWIDQVPAVVHALYPGQEGGHALAHILSGKVNPSAKLPFTIEKRWEDSPACGHYDETRKEKKVYYTEGIFTGYRGYDQKGIEPLFPFGFGLSYTTFDYSGLNIRMTDKKQKQLVVSFTVTNTGQRDGYEVAQLYVRDMQSKEPRPLKELKGFDKVYLKAGESKQIEIGLSEDAFQYFNAKQNRWVFEKGEFEILVGASSKDIRLAEKIKM | failed |
| MKNITKLSTVALSLLLCTACAASNTSTSKTQSHHPKQTKLTDKQKEEPKNKEAADQEMHPQGAVDLTKYKAKPVKDYGKKIDVGDGKKMNIYETGQGKIPIVFIPGQAEISPRYAYKNLIERLSKKYKIYTVEPLGYGLSDIPTKPRTLENITKEIHTGLNKIGVKNFYLAAHSLGGMYSLNYAKNYPEEVRGFIGMDTSTPWMEGEQKTKYDPESAKWAMKLPDVDDKTNEQYLSIAKKINGNKSQRDEDERLGDNLGKLKNVKFPKGMPTKYFLADQSVEGIKLRQADFKGLKNWDQQHIDLSEDPKDASVEIFKGSHNIFQTQYEHMAKAIDGFIQSHQK | failed |
| MKNKIKFATIIHPDVSFFNKQEVGEGTIIYPGLIVVGRFKLGKHVILKQKCSLGNNIEIGDYSFISFNSNIDSNVMVKEGSYIEANTTILANSNIDKNTYIKEGSILYLEHHHHHH | failed |
| MKNKTIISKQNLVLIVIMVGATLTDQLSKIWITSNLQLGESIEIIPSFFKITYAQNTGAAWSILEGQMTFFYVITLVALILLGWYFYRLKDYQIIQKIGVALMVSGTLGNFIDRLLFQYVRDSLDFHILGYNFPIFNVADVLLICGVLFIIIDEVLKSFGVSYKKM | failed |
| MKNLEKCILCGSHNIVPHWKNVRSYNVSKCLDCSFLFLHEIIDDHELENYYSQSYFMASYAKTENNLIDAANNPKITAEAKEYANLIKLHHPEAHNVGEIGCSWGYLLYNLQNFGYSAKGFELSKTTAEMGSKQLGINITSGFFETQYNQFDVLILRHVLEHVPDPQDLLEKIYDSIKKDGLFILEGPNLDSISSRLFGKNVSWVSPPDHISFPNFISLIMACEKLGFTCIHKSSRRGRGISIFHQALLNSVGLMFGGKEKAKVNLGGINEKPNNQQLSSLKSAALKIVDFLDFLSSPMQPFLKQALLEEEMLIIFKKLEHHHHHH | failed |
| MKNLKIIWIYRLGLLLLVFLCLLVFLKIKPLWAPIIFVCKVAITPFLIACFIAYLLHPLIEKIHKEGMPRTLAILLIYILFFGGIGYGIYKGTPVVIKQLQEINEQFPQFTKMYDSWMDGVTEQTANFPSFIHEKVKQIFVGVETKIQALLNKVMSTARGVLDSLLIIFLIPFIVFYILKDYGEFYHIFWKLVPSKWRSTGQMLAKEIDKSLGSYIRGQLFVCLVLGGVSALSFWFIGMKYPLLLGIIIGVTDIIPYFGPILGAIPTLMIAATVSTSLLIKAGIAIAILQFVESNILSPYIVGKSLRMHPVIIMLALLVGGEVGGIVGLLISVPILAVIRTVIVHVRPLWKKEDMQ | failed |
| MKNLKNKHFALLYLVLFLVLAKLSPFIITALIMGLYLSIIIDYVARFLEVFIKKPRVLPRVISNVLVFLTIAYSAVNFFPVIVREAQKVFSEIDRIRSGLENIDIPGWLSSILSSISASFSEGALSLVNKIVGYVPSFITAAILIVITAFIVSSLKRLIKENVHYLFPTNPSDGKEFLKTTYTEFERFVGGQVLVAIFVGLFVGFGAFIFKIPSAFFLGMLAFVTDFVPYLGVVISAIPLLMLAFSVHGLSGLLIGTIILVAANQLEMWVLAPKIQSNTLNVHWFIILIMILILGDLFSFGGVLIALPFLIFLKNFWKQYVMGG | failed |
| MKNPIIDNIPCVLLAGGKSSRFITNNIQTNKALMPLKSYSSLLEYQYTRLLKLFKKVIISTKKSYELNAPYLLEKESDLFSPLFGIHNAFLTLQTPYIFFIPIDTPLVSFESIKALCGIKNFSVTYAKSPTKEHYLISLWHQNTLNALIYALKTQNYRLSDLVKNTSSVAINFDKEEEFLNLNTLKDYELAVQILKKRANG | failed |
| MKNRAWLYVILTCIFEIFWVFGFNTANTWWHWIIILGVIAVDFHFLSKACEHLATGTVYAVFAGAGTVGTFLMDVFLFGGSFSVGKLFFIVMVVAGVIGLKLADNKEETVEGAA | failed |
| MKNRYIILSILLFSVACRKFEPYPVFSKLALKKAFVDLGTHKLATFSVIRNSNYLVVFESGLGDDHTIWNSSNIALKAADTIDVVTYDRANRGQSGNGPVPRDVARLQSELGSVIDSFANGRKVVLIGHSLGGFMIRAWAVNNPTKVAGMLFIDPSHEKAGLDSAQNQQAEDYMYGKWSSYGTNFGAALESREWVEDNMYMATLGNLPDVPVIVLTAMKVDPPNKVEILKPWYDAHESLGTGVTDFTHVSIPNSGHMVMIDQPQILLNYIHVLLAKLH | failed |
